Laboratory results as given in US7083511.
“And” between values parts separate entries of the source, which are not always exact repeats. Equal values may be shown once.

Assays:
RPRTSSK = test system: T1, RPRTSSK
T1 sequence: RPRTSSK

RPRTSSL = test system: T2, RPRTSSL
T2 sequence: RPRTSSL

RPRTSSA = test system: T3, RPRTSSA
T3 sequence: RPRTSSA

PRTSSF = test system: T4, PRTSSF
T4 sequence: PRTSSF

RPRTSAF = test system: T5, RPRTSAF
T5 sequence: RPRTSAF

RPRTSS = test system: T6, RPRTSS
T6 sequence: RPRTSS

RPRTSSV = test system: T7, RPRTSSV
T7 sequence: RPRTSSV

RPKTSSF = test system: T8, RPKTSSF
T8 sequence: RPKTSSF

Crosstide (GRPRTSSFAEG) = test system: T9, Crosstide (GRPRTSSFAEG)
T9 sequence: GRPRTSSFAEG

RPRTSSF = test system: T10, RPRTSSF
T10 sequence: RPRTSSF

RPRTSSE = test system: T11, RPRTSSE
T11 sequence: RPRTSSE

RPRTSTF = test system: T12, RPRTSTF
T12 sequence: RPRTSTF

KPRTSSF = test system: T13, KPRTSSF
T13 sequence: KPRTSSF

RPRAATF = test system: T14, RPRAATF
T14 sequence: RPRAATF

| Substance | kinase activity toward peptide (30 µM), relative to peptide 1 (Crosstide) (RPRTSSK) | kinase activity toward peptide (30 µM), relative to peptide 1 (Crosstide) (RPRTSSL) | kinase activity toward peptide (30 µM), relative to peptide 1 (Crosstide) (RPRTSSA) | kinase activity toward peptide (30 µM), relative to peptide 1 (Crosstide) (PRTSSF) | kinase activity toward peptide (30 µM), relative to peptide 1 (Crosstide) (RPRTSAF) | kinase activity toward peptide (30 µM), relative to peptide 1 (Crosstide) (RPRTSS) | kinase activity toward peptide (30 µM), relative to peptide 1 (Crosstide) (RPRTSSV) | kinase activity toward peptide (30 µM), relative to peptide 1 (Crosstide) (RPKTSSF) | kinase activity toward peptide (30 µM), relative to peptide 1 (Crosstide) (Crosstide (GRPRTSSFAEG)) | kinase activity toward peptide (30 µM), relative to peptide 1 (Crosstide) (RPRTSSF) | kinase activity toward peptide (30 µM), relative to peptide 1 (Crosstide) (RPRTSSE) | kinase activity toward peptide (30 µM), relative to peptide 1 (Crosstide) (RPRTSTF) | kinase activity toward peptide (30 µM), relative to peptide 1 (Crosstide) (KPRTSSF) | kinase activity toward peptide (30 µM), relative to peptide 1 (Crosstide) (RPRAATF) |
| --- | --- | --- | --- | --- | --- | --- | --- | --- | --- | --- | --- | --- | --- | --- |
| GST-PKBα | 48% | 69% | 26% | < 1% | < 1% | < 1% | 67% | 26% | 100% | 160% | 21% | 208% | 6% | 55% |
| GST-SGK2α[S356D] | 128% | 185% | 82% | < 1% | < 1% | 8% | 124% | 8% | 100% | 182% | 34% | 192% | < 1% | 61% |
| GST-ΔN-SGK3[S419D] | 200% | 113% | 123% | < 1% | < 1% | 18% | 139% | 48% | 100% | 137% | 67% | 156% | < 1% | 56% |
| GST-ΔN-SGK(61-431)[S422D] |  |  |  | < 1% | < 1% | 5.1% and 10% |  |  | 100% | 154% and 135% |  |  | 2% and < 1% |  |
